The assay concerns the target complement C3. The experiment in a line: SPR.

B1: recombinant HC1 (rHC1), wild type; heavy chain 1 of inter-α-inhibitor (natural protein)
chain: SKSSEKRQAVDTAVDGVFIRSLKVNCKVTSRFAHYVVTSQVVNTANEAREVAFDLEIPKTAFISDFAVTADGNAFIGDIKDKVTAWKQYRKAAISGENAGLVRASGRTMEQFTIHLTVNPQSKVTFQLTYEEVLKRNHMQYEIVIKVKPKQLVHHFEIDVDIFEPQGISKLDAQASFLPKELAAQTIKKSFSGKKGHVLFRPTVSQQQSCPTCSTSLLNGHFKVTYDVSRDKICDLLVANNHFAHFFAPQNLTNMNKNVVFVIDISGSMRGQKVKQTKEALLKILGDMQPGDYFDLVLFGTRVQSWKGSLVQASEANLQAAQDFVRGFSLDEATNLNGGLLRGIEILNQVQESLPELSNHASILIMLTDGDPTEGVTDRSQILKNVRNAIRGRFPLYNLGFGHNVDFNFLEVMSMENNGRAQRIYEDHDATQQLQGFYSQVAKPLLVDVDLQYPQDAVLALTQNHHKQYYEGSEIVVAGRIADNKQSSFKADVQAHGEGQEFSITCLVDEEEMKKLLRERGHMLENHVERLWAYLTIQELLAKRMKVDREERANLSSQALQMSLDYGFVTPLTSMSIRGMADQDGLKPTIDKPSEDSPPLEMLGPRRTFVLSALQPSPTHSSSNTQRLPDRVTGVDTD
As a reminder, the Kd is the concentration at which binding is half-saturated. A high value points to weaker binding. Molecule B1 yielded a Kd of 360 nM.

(Values after article doi:10.1101/695700.)
